Source: patent US20210147546A1 (VRIJE UNIVERSITEIT BRUSSEL, published 2021)
One block for each binder: values may come before it.

Tests used:
[1] = molecular target: T1, recombinant Fc-tagged human PD-L1 (R&D Systems, 156-B7) (human, UniProt Q9NZQ7 19-239); experiment: SPR competition: sdAb mixed with soluble recombinant human PD-L1, run over immobilized human PD-1 (FIG. 16B)
T1 construct: Bought protein; Also the immunogen for the alpacas; also called PD-L1-Fc; Fc-PD-L1; not shown: Fc tag
Description: (§1) To evaluate the sdAb's IC₅₀, the sdAb concentration at which the relative response of the interaction between PD-1 and PD-L1 is inhibited by half, Fc-PD-1 protein was immobilized on a CM5 chip. […] The maximum relative response values were plotted in function of competing sdAb concentration and analyzed with a “Log inhibitor versus response (variable lope)” model in Prism to calculate IC₅₀ values.

[2] = molecular target: T1, recombinant Fc-tagged human PD-L1 (R&D …); experiment: SPR competition: sdAb K2 (0,78 to 1000 nM) mixed with 25 nM PD-L1-Fc and run over immobilized PD-1 Fc. The binder is named by legend paragraph 20, not on the sheet. The text gives 9.5 nM for this figure.
Method: (§2) All measurements were performed on a Biacore T200 device (GE Healtcare) at 25° C. and using Hepes-buffered saline (0.01M HEPES, pH 7.4; 0.15M NaCl, 3 mM EDTA, 0.005% Tween20) as running buffer. All recombinant proteins were dissolved to 10 μg/mL in 10 mM Na-acetate (pH 5.0) for immobilization on a CM5 sensor chip using linkage chemistry with 1-(3-(dimethylamino)propyl)-3-ethylcarbodiimide (EDC) and N-hydroxy-succinimide ([…]). Unreacted EDC-NHS linkers were blocked with 1M ethanolamine-HCl. For all measurements, SPR signals in the flow cell with immobilized protein were subtracted with those in a flow cell that underwent the same manipulations but where recombinant protein was omitted, to obtain specific binding signals (response units, RU). Affinity for human PD-L1 of the purified sdAbs was evaluated on immobilized PD-L1 protein.
as §1

[3] = molecular target: T2, recombinant His-tagged human PD-L1 protein (SINO Biologicals, 10084-H08H) (human, UniProt Q9NZQ7 19-238); experiment: SPR (Biacore T200), purified sdAb over immobilized recombinant human PD-L1
T2 construct: Bought protein; also called immobilized recombinant PD-L1 protein; not shown: His-tag
Method: as §2

[4] = molecular target: T3, human PD-L1 expressed on cells (lentivirally transduced HEK293T, MCF7 and 624-MEL cells; endogenous on moDCs) (human, UniProt Q9NZQ7 19-290); experiment: flow cytometry, fold increase in mean fluorescence intensity of binding to human PD-L1 compared to control sdAb
T3 construct: whole, on cells; also called PD-L1+ MCF7

[5] = molecular target: T1, recombinant Fc-tagged human PD-L1 (R&D …); experiment: SPR competition: sdAb mixed with 25 nM PD-L1-Fc, run over immobilized PD-1-Fc (FIG. 5A)
Method: as §2, §1

T1 sequence (Q9NZQ7 19-239 limits assumed): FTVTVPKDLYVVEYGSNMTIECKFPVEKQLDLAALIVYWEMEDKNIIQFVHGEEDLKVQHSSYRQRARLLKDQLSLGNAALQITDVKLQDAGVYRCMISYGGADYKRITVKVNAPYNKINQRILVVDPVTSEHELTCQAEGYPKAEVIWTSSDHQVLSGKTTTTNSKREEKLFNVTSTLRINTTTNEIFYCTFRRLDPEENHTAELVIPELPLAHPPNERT
T3 sequence (Q9NZQ7 19-290): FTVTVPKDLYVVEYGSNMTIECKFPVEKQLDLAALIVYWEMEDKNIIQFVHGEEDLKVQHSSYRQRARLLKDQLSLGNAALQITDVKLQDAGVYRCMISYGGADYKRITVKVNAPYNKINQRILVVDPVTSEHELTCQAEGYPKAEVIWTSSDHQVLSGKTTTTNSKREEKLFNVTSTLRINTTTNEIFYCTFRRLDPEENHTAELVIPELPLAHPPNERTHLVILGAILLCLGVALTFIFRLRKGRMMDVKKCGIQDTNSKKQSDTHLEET
T2 sequence (Q9NZQ7 19-238 limits assumed): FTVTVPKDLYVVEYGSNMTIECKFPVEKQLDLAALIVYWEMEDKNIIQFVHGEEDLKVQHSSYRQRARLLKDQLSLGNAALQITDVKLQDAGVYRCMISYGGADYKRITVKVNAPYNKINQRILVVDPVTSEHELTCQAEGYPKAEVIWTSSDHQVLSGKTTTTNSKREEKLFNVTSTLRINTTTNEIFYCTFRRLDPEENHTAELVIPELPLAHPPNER

IC50 [1]: 8.5 nM | IC50 [2]: 10 nM | Kd [3]: 5.2 nM | MFI PD-L1 binding (fold increase) [4]: 22.8 fold | IC50 [5]: 9.5 nM
B1: sdAb K2 (human PD-L1-specific single domain antibody, C-terminal HIS-tag) (VHH)
VHH: QVQLQESGGGLVQPGGSLRLSCAASGFTFSSFAMSWVRQAPGKGLEWVSDIDTTGRTTDYADSVKGRFTISRDNAENTLYLQMNDLKPEDTAVYYCANVPKELVLSFGSWGPGTQVTVSS
notes: also called anti-hPD-L1 sdAb K2; K2 (huPDL1 nanobody)

Kd [3]: 3.5 nM | MFI PD-L1 binding (fold increase) [4]: 23.4 fold
B2: sdAb K3 (human PD-L1-specific single domain antibody, C-terminal HIS-tag) (VHH)
VHH: QVQLQESGGGSVQPGGSLRLSCEASGFTFSSYAMSWVRQAPGEGLEWVSDINTGGDNTDYAGSVKGRFTISRDNAKNTLYLQMDSLKPEDTAKYYCANVPKELVHSFNSWGQGTQVTVSS
notes: also called K3 (huPDL1 nanobody)

Kd [3]: 4.5 nM | MFI PD-L1 binding (fold increase) [4]: 6.9 fold
B3: sdAb K4 (human PD-L1-specific single domain antibody, C-terminal HIS-tag) (VHH)
VHH: QVQLQESGGGLVQPGGSLRLSCAASGFTFSSFAMSWVRQVPGRTLEWVSDINTGGDSTDYANSVKGRFTISRDNAKNTLYLQMNSLKPDDTAVYYCANVPKELVFSFASWGRGTQVTVSS
